Assay results: US20110104788A1 (published 2011)

B1: human FXa mutant containing the C-terminal EGF2-SP domain (EGF2-SP FXa) (enzyme)
chain: TRKLCSLDNGDCDQFCHEEQNSVVCSCARGYTLADNGKACIPTGPYPCGKQTLERIVGGQECKDGECPWQALLINEENEGFCGGTILSEFYILTAAHCLYQAKRFKVRVGDRNTEQEEGGEAVHEVEVVIKHNRFTKETYDFDIAVLRLKTPITFRMNVAPACLPERDWAESTLMTQKTGIVSGFGRTHEKGRQSTRLKMLEVPYVDRNSCKLSSSFIITQNMFCAGYDTKQEDACQGDSGGPHVTRFKDTYFVTGIVSWGEGCARKGKYGIYTKVTAFLKWIDRSMKTRGLPKAKSHAPEVITSSPLK
modifications: biotinylated with biotin-FPRCK
notes: domain: EGF2-SP; also called EGF2-SP fragment; rFX EGF2-SP
B2: mouse coagulation factor X (enzyme)
chain: ANSFFEEFKKGNLERECMEEICSYEEVREIFEDDEKTKEYWTKYKDGDQCESSPCQNQGACRDGIGGYTCTCSEGFEGKNCELFVRKLCRLDNGDCDQFCREEQNSVVCSCASGYFLGNDGKSCISTAPFPCGKITTGRRKRSVALNTSDSELDLEDALLDEDFLSPTENPIELLNLNETQPERSSDDLVRIVGGRECKDGECPWQALLINEDNEGFCGGTILNEFYILTAAHCLHQARRFKVRVGDRNTEKEEGNEMVHEVDVVIKHNKFQRDTYDYDIAVLRLKTPITFRMNVAPACLPQKDWAESTLMTQKTGIVSGFGRTHEKGRQSNILKMLEVPYVDRNTCKLSTSFSITQNMFCAGYEAKLEDACQGDSGGPHVTRFKNTYYVTGIVSWGEGCARKGKYGIYTKVTTFLKWIDRSMKARVGPTAETPRTAGPPN
B3: Factor X-binding protein (X-bp) from Deinagkistrodon acutus (other)
chain 1: DCSSGWSSYEGHCYKVFKQSKTWADAESFCTKQVNGGHLVSIESSGEADFVGQLIAQKIKSAKIHVWIGLRAQNKEKQCSIEWSDGSSISYENWIEEESKKCLGVHIETGFHKWENFYCEQQDPFVCEA
chain 2: DCPSDWSSYEGHCYKPFNEPKNWADAENFCTQQHTGSHLVSFQSTEEADFVVKLAFQTFDYGIFWMGLSKIWNQCNWQWSNAAMLKYTDWAEESYCVYFKSTNNKWRSITCRMIANFVCEFQA

How the values were obtained:
[1] = target: T1, adenovirus serotype 5 (Ad5) virus particle (human adenovirus serotype 5, UniProt P04133 1-952); assay: SPR; biotinylated EGF2-SP FXa coupled to SA chip, Ad5 injected
T1 construct: also called Ad5CMVlacZ (control virus with unmodified hexon); intact virus Ad5

[2] = target: Ixolaris, 12 kDa two-Kunitz domain protein isolated from tick salivary gland (tick, UniProt Q964Q0 27-165)
[3] = target: B2; assay: SPR (Biacore T100); mouse FX immobilised on CM5 chip, inhibitor injected; heterogeneous ligand model
[4] = target: T2, human coagulation factor X (FX), full-length zymogen (human, UniProt P00742 41-488, genetically encoded glutamic acid residues of the Gla domain converted to γ-carboxyglutamic acid); assay: SPR (Biacore T100); human FX immobilised on CM5 chip, inhibitor injected; heterogeneous ligand model
T2 construct: mature; also called human FX; hFX

## B1
[1]
  binding result: no binding

## B2
[2]
  Kd: 0.000515 nM
  koff: 8.1e-07 s⁻¹
  kon: 1.57e+06 M⁻¹ s⁻¹

## B3
[3]
  Kd: 1.04 nM
  koff: 0.00031 s⁻¹
  kon: 296000 M⁻¹ s⁻¹
[4]
  Kd: 0.118 nM
  koff: 0.00023 s⁻¹
  kon: 1.96e+06 M⁻¹ s⁻¹
